Measured values from patent publication US20220396635A1 (UNIVERSIT T STUTTGART, published 2022).
Like-named read-outs stand apart in the source and are kept apart here.

B1: scDb/scFv-Fc (2-1)+1, trivalent bispecific anti-EGFRxanti-CD3 (bispecific antibody)
chain 1: QVQLVQSGAEVKKPGSSVKVSCKASGGTFSGYTMNWVRQAPGQGLEWMGLINPYKGVSTYNGKFKDRVTITADKSTSTAYMELSSLRSEDTAVYYCARSGYYGDSDWYFDVWGQGTLVTVSSGGGGSDIQLTQSPSFLSASVGDRVTITCRASQSIGTNIHWYQQKPGKAPKLLIKYASESISGVPSRFSGSGSGTEFTLTISSLQPEDFATYYCQQNNNWPTTFGAGTKLEIKRGGGGSGGGGSGGGGSEVQLVESGGGLVQPGGSLRLSCAASGFSLTNYGVHWVRQAPGKGLEWLGVIWSGGNTDYNTPFTSRFTISRDNSKNTLYLQMNSLRAEDTAVYYCARALTYYDYEFAYWGQGTTVTVSSGGGGSDIQMTQSPSSLSASVGDRVTITCRASQDIRNYLNWYQQKPGKAPKLLIYYTSRLHSGVPSRFSGSGSGTDFTFTISSLQPEDIATYYCQQGNTLPWTFGQGTKLEIKRAAADKTHTCPPCPAPPVAGPSVFLFPPKPKDTLMISRTPEVTCVVVDVSHEDPEVKFNWYVDGVEVHNAKTKPREEQYNSTYRVVSVLTVLHQDWLNGKEYKCKVSNKGLPSSIEKTISKAKGQPREPQVCTLPPSRDELTKNQVSLSCAVKGFYPSDIAVEWESNGQPENNYKTTPPVLDSDGSFFLVSKLTVDKSRWQQGNVFSCSVMHEALHNHYTQKSLSLSPGK
chain 2: EVQLVESGGGLVQPGGSLRLSCAASGFSLTNYGVHWVRQAPGKGLEWLGVIWSGGNTDYNTPFTSRFTISRDNSKNTLYLQMNSLRAEDTAVYYCARALTYYDYEFAYWGQGTTVTVSSGGGGSGGGGSGGGGSDIQLTQSPSFLSASVGDRVTITCRASQSIGTNIHWYQQKPGKAPKLLIKYASESISGVPSRFSGSGSGTEFTLTISSLQPEDFATYYCQQNNNWPTTFGAGTKLEIKRAAADKTHTCPPCPAPPVAGPSVFLFPPKPKDTLMISRTPEVTCVVVDVSHEDPEVKFNWYVDGVEVHNAKTKPREEQYNSTYRVVSVLTVLHQDWLNGKEYKCKVSNKGLPSSIEKTISKAKGQPREPQVYTLPPCRDELTKNQVSLWCLVKGFYPSDIAVEWESNGQPENNYKTTPPVLDSDGSFFLYSKLTVDKSRWQQGNVFSCSVMHEALHNHYTQKSLSLSPGK
notes: also called scDbhuU3xhu225-Fc(hole)Δab + scFvhu225-Fc(knob)Δab
B2: scDb/Fab-Fc (2-1)+1, trivalent bispecific anti-EGFRxanti-CD3 (bispecific antibody)
chain: B1 chain 1
heavy: EVQLVESGGGLVQPGGSLRLSCAASGFSLTNYGVHWVRQAPGKGLEWLGVIWSGGNTDYNTPFTSRFTISRDNSKNTLYLQMNSLRAEDTAVYYCARALTYYDYEFAYWGQGTTVTVSSASTKGPSVFPLAPSSKSTSGGTAALGCLVKDYFPEPVTVSWNSGALTSGVHTFPAVLQSSGLYSLSSVVTVPSSSLGTQTYICNVNHKPSNTKVDKKVEPKSCGTDKTHTCPPCPAPPVAGPSVFLFPPKPKDTLMISRTPEVTCVVVDVSHEDPEVKFNWYVDGVEVHNAKTKPREEQYNSTYRVVSVLTVLHQDWLNGKEYKCKVSNKGLPSSIEKTISKAKGQPREPQVYTLPPCRDELTKNQVSLWCLVKGFYPSDIAVEWESNGQPENNYKTTPPVLDSDGSFFLYSKLTVDKSRWQQGNVFSCSVMHEALHNHYTQKSLSLSPGK
light: DIQLTQSPSFLSASVGDRVTITCRASQSIGTNIHWYQQKPGKAPKLLIKYASESISGVPSRFSGSGSGTEFTLTISSLQPEDFATYYCQQNNNWPTTFGAGTKLEIKRTVAAPSVFIFPPSDEQLKSGTASVVCLLNNFYPREAKVQWKVDNALQSGNSQESVTEQDSKDSTYSLSSTLTLSKADYEKHKVYACEVTHQGLSSPVTKSFNRGEC
notes: also called scDbhuU3xhu225-Fc(hole)Δab + Fdhu225-Fc(knob)Δab + VLhu225-CLκ
B3: scDb/scFv-Fc (1-1)+2, trivalent bispecific anti-HER3×anti-CD3 (bispecific antibody)
chain 1: QVQLQQSGPGLVKPSQTLSLTCAISGDSVSSNRAAWNWIRQSPSRGLEWLGRTYYRSKWYNDYAQSLKSRITINPDTPKNQFSLQLNSVTPEDTAVYYCARDGQLGLDALDIWGQGTMVTVSSGGGGSQAGLTQPPAVSVAPGQTASITCGRDNIGSRSVHWYQQKPGQAPVLVVYDDSDRPAGIPERFSGSNYENTATLTISRVEAGDEADYYCQVWGITSDHVVFGGGTKLTVLGGGGSGGGGSGGGGSQVQLQQSGPGLVKPSQTLSLTCAISGDSVSSNRAAWNWIRQSPSRGLEWLGRTYYRSKWYNDYAQSLKSRITINPDTPKNQFSLQLNSVTPEDTAVYYCARDGQLGLDALDIWGQGTMVTVSSGGGGSQAGLTQPPAVSVAPGQTASITCGRDNIGSRSVHWYQQKPGQAPVLVVYDDSDRPAGIPERFSGSNYENTATLTISRVEAGDEADYYCQVWGITSDHVVFGGGTKLTVLAAADKTHTCPPCPAPPVAGPSVFLFPPKPKDTLMISRTPEVTCVVVDVSHEDPEVKFNWYVDGVEVHNAKTKPREEQYNSTYRVVSVLTVLHQDWLNGKEYKCKVSNKGLPSSIEKTISKAKGQPREPQVCTLPPSRDELTKNQVSLSCAVKGFYPSDIAVEWESNGQPENNYKTTPPVLDSDGSFFLVSKLTVDKSRWQQGNVFSCSVMHEALHNHYTQKSLSLSPGK
chain 2: DIQMTQSPSSLSASVGDRVTITCRASQDIRNYLNWYQQKPGKAPKLLIYYTSRLHSGVPSRFSGSGSGTDFTFTISSLQPEDIATYYCQQGNTLPWTFGQGTKLEIKRGGGGSGGGGSGGGGSQVQLVQSGAEVKKPGSSVKVSCKASGGTFSGYTMNWVRQAPGQGLEWMGLINPYKGVSTYNGKFKDRVTITADKSTSTAYMELSSLRSEDTAVYYCARSGYYGDSDWYFDVWGQGTLVTVSSAAADKTHTCPPCPAPPVAGPSVFLFPPKPKDTLMISRTPEVTCVVVDVSHEDPEVKFNWYVDGVEVHNAKTKPREEQYNSTYRVVSVLTVLHQDWLNGKEYKCKVSNKGLPSSIEKTISKAKGQPREPQVYTLPPCRDELTKNQVSLWCLVKGFYPSDIAVEWESNGQPENNYKTTPPVLDSDGSFFLYSKLTVDKSRWQQGNVFSCSVMHEALHNHYTQKSLSLSPGK
notes: The scDb is monospecific for HER3; the CD3 site sits in the scFv arm; also called scDb3-43x3-43-Fc(hole)Δab + scFvhuU3-Fc(knob)Δab
B4: scDb/Fab-Fc (1-1)+2, trivalent bispecific anti-HER3×anti-CD3 (bispecific antibody)
chain: B3 chain 1
heavy: QVQLVQSGAEVKKPGSSVKVSCKASGGTFSGYTMNWVRQAPGQGLEWMGLINPYKGVSTYNGKFKDRVTITADKSTSTAYMELSSLRSEDTAVYYCARSGYYGDSDWYFDVWGQGTLVTVSSASTKGPSVFPLAPSSKSTSGGTAALGCLVKDYFPEPVTVSWNSGALTSGVHTFPAVLQSSGLYSLSSVVTVPSSSLGTQTYICNVNHKPSNTKVDKKVEPKSCDKTHTCPPCPAPPVAGPSVFLFPPKPKDTLMISRTPEVTCVVVDVSHEDPEVKFNWYVDGVEVHNAKTKPREEQYNSTYRVVSVLTVLHQDWLNGKEYKCKVSNKGLPSSIEKTISKAKGQPREPQVYTLPPCRDELTKNQVSLWCLVKGFYPSDIAVEWESNGQPENNYKTTPPVLDSDGSFFLYSKLTVDKSRWQQGNVFSCSVMHEALHNHYTQKSLSLSPGK
light: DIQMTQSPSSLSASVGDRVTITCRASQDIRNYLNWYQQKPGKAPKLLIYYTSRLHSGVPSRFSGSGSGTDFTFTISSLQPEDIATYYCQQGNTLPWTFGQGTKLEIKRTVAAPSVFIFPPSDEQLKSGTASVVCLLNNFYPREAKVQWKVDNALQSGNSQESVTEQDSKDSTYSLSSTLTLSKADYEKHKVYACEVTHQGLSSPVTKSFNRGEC
notes: The scDb is monospecific for HER3; the CD3 site sits in the Fab arm; also called scDb3-43x3-43-Fc(hole)Δab + FdhuU3-Fc(knob)Δab + VLhuU3-CLK

Tests used:
EGFR [1] = biological target: T1, EGFR (UniProt P00533 25-1210, limits assumed); assay: flow cytometry, serial dilution on SKBR-3 cells (EGFR-expressing), PE anti-human Fc detection
T1 construct: whole, on cells; the cell lines are human tumor lines
Experimental: (§1) Binding analysis of the trivalent, bispecific antibodies was performed by flow cytometry using tumor cell lines with different EGFR-expression levels (FIG. 20) (Table 12). Adherent cells were washed with PBS and shortly trypsinized at 37° C. Trypsin was quenched with FCS-containing medium and removed by centrifugation (500×g, 5 min.). Target cells (FaDu, LIM1215, SKBR-3, T-47-D, MCF-7 and Jurkat cells) at 1×10⁵ cells/well were incubated with a serial dilution of trivalent, bispecific antibodies for 1 h at 4° C. After removing excess of recombinant protein by washing with PBA (PBS, 2% FBS, and 0.02% sodium azide), bound protein was detected using PE-conjugated anti-human Fc mAb (Jackson ImmunoResearch Laboratories Inc). Fluorescence was measured using MACSquant VYB (Miltenyi Biotec) and data were analyzed using FlowJo (Tree Star). Relative median fluorescence intensities (MFI) were calculated as followed: relative MFI=((MFIₛₐₘₚₗₑ-(MFIdetection-MFIcells))/MFIcells).

EGFR [2] = biological target: T1, EGFR; assay: flow cytometry, serial dilution on MCF-7 cells (EGFR-expressing), PE anti-human Fc detection
Experimental: as §1

EGFR [3] = biological target: T1, EGFR; assay: flow cytometry, serial dilution on LIM1215 cells (EGFR-expressing), PE anti-human Fc detection
Experimental: as §1

EGFR [4] = biological target: T1, EGFR; assay: flow cytometry, serial dilution on T-47-D cells (EGFR-expressing), PE anti-human Fc detection
Experimental: as §1

EGFR [5] = biological target: T1, EGFR; assay: flow cytometry, serial dilution on FaDu cells (EGFR-expressing), PE anti-human Fc detection
Experimental: as §1

EGFR [6] = biological target: T1, EGFR; assay: cell-based or functional assay
CD3 [7] = biological target: T2, CD3 (UniProt P07766 23-207); assay: flow cytometry, serial dilution on Jurkat cells (CD3-expressing), PE anti-human Fc detection
T2 construct: whole, on cells; on cells it stands in the TCR/CD3 complex; also called CD3 on Jurkat cells
Experimental: as §1

HER3 [8] = biological target: T3, HER3 (UniProt P21860 20-1342, limits assumed); assay: flow cytometry, serial dilution on LIM1215 cells (HER3-expressing), PE anti-human Fc detection
T3 construct: whole, on cells; the cell lines are human tumor lines
Experimental: (§2) Binding of trivalent, bispecific fusion proteins to HER3-expressing (LIM1215, MCF-7) and CD3-expressing (Jurkat) cell lines was analyzed by flow cytometry. 2×10⁵ cells/well were incubated with a serial dilution of trivalent, bispecific antibodies for 1 h at 4° C. followed by detection using a PE-conjugated anti-human Fc antibody (Jackson ImmunoResearch Laboratories Inc). […] Concerning binding to the CD3-expressing cell line Jurkat, the trivalent, bispecific antibodies in the (1-2)+1 and in the (2−1)+1 orientation bound with EC₅₀ values in the low nanomolar range.

CD3 [9] = biological target: T2, CD3; assay: flow cytometry, serial dilution on Jurkat cells (CD3-expressing), PE anti-human Fc detection; remark: listed apart in the source
Experimental: as §2

HER3 [10] = biological target: T3, HER3; assay: cell-based or functional assay
HER3 [11] = biological target: T3, HER3; assay: flow cytometry, serial dilution on MCF-7 cells (HER3-expressing), PE anti-human Fc detection
Experimental: as §2

Binder	EC50 (EGFR [1]) [nM]	EC50 (EGFR [2]) [nM]	EC50 (EGFR [3]) [nM]	EC50 (EGFR [4]) [nM]	EC50 (EGFR [5]) [nM]	EC50 of PBMC cytotoxicity on FaDu cells, E:T 5:1 (EGFR [6]) [nM]	EC50 of PBMC cytotoxicity on SKBR-3 cells, E:T 5:1 (EGFR [6]) [nM]	EC50 (CD3 [7]) [nM]	EC50 (HER3 [8]) [nM]	EC50 (CD3 [9]) [nM]	EC50 of proliferation of CD4+ T-cells, MCF-7 co-culture (HER3 [10]) [nM]	EC50 of proliferation of CD8+ T-cells, MCF-7 co-culture (HER3 [10]) [nM]	EC50 (HER3 [11]) [nM]
B1	0.1	0.1	0.2	0.1	0.7	0.027	0.277	16.3	–	–	–	–	–
B2	0.1	0.03	0.2	0.03	0.2	0.056	0.209	1.4	–	–	–	–	–
B3	–	–	–	–	–	–	–	–	0.882	0.7	0.393	0.191	0.4
B4	–	–	–	–	–	–	–	–	0.249	8.7	–	–	0.7
